{
  "source": "patent US20150297458A1",
  "about": "“RAPID RECONSTITUTION PACKAGES FOR MIXING AND DELIVERY OF DRUGS” (Massachusetts Institute of Technology, priority 2012, published 2015)",
  "key": {"[1]": {"settings": "cited from earlier work"}, "[2]": {"assay": "ELISA stability characterization of tPA after storage in vial, solution or RRP", "type": "physicochemical", "description": "RRPs were initially kept at 20° C., and subsequently subjected to a fixed wall temperature of 65° C. for 3 hours. Samples were kept in 6 different storage conditions for 24 hours prior to assay preparation: (1) Standard Cathflo Activase lyophilized in glass vial at 20° C.; (2) Cathflo Activase reconstituted in Millipore filtered water and kept in glass vial at 20° C.; (3) lyophilized Cathflo Activase loaded into RRPs and kept at 20° C.; (4) Cathflo Activase lyophilized in glass vial at 65° C.; (5) Cathflo Activase reconstituted in Millipore filtered water and stored in glass vial at 65° C., and (6) Cathflo Activase loaded into RRP and kept at 65° C. After 24 hours each sample in lyophilized form, including those stored in the RRP, was reconstituted in 2 mL Millipore water, and apportioned for subsequent use in ELISA, UV-Vis and HPLC assays.\nStability experiments were performed to characterize and compare the RRP with standard vials at various storage conditions. ELISA assays were used to test for stability of samples (Human tPA Platinum ELISA Kit, eBioscience, Inc.) that underwent two temperature conditions, T=20, 65° C. HPLC assays were not sufficient in assaying stability for tPA as the low pH buffer required denatured tPA regardless of conformation or partial denaturation already induced by the storage condition.\nThe samples to be tested were injected into each ELISA well and left to incubate. After a wash step, a second antibody, horseradish peroxidase (HRP)-conjugated anti-tPA, was injected into each sample well. The HRP-conjugated anti-tPA bound onto the opposing side of the tPA molecule already bound onto the plate-fixed antibody. After a second wash step, a color inducing substrate (TMB substrate) was then injected into the wells, which bound onto the HRP to induce a measureable gradient representing the amount of tPA bound. In order to prevent oversaturation of the antibodies, the samples were diluted to 10 ng/mL to fall within the assay sensitivity range of 2 pg/mL-10 ng/mL. Optical signal intensity from assay plates were measured with spectrophotometer at wavelength 450 nm (PowerWave HT Microplate Spectrophotomer, BioTek Instruments, Inc.). Each sample was normalized against a calibration curve derived from a 5-parameter logistic fit of tPA standards ran concurrently with the samples."}},
  "data": [
    {"substance": "Tissue Plasminogen Activator [tPA]", "values": [
      {"measurement": "stability time in solution (liquid form)", "setting": "[1]", "result": "up to 8 hours"},
      {"measurement": "stability by ELISA", "setting": "[2]; all samples (solid, liquid, and RRP) at 20° C., over 24 hours", "result": "stability preservation"},
      {"measurement": "average activity retained (ELISA)", "setting": "[2]; lyophilized in standard glass vial at 65° C., 24 hours", "result": 81.6, "unit": "%"},
      {"measurement": "total initial drug stability retained, average (ELISA)", "setting": "[2]; lyophilized, loaded into RRP, kept at 65° C., 24 hours", "result": 86.3, "unit": "%"},
      {"measurement": "activity expressed, in average of the standard activity average (ELISA)", "setting": "[2]; stored in reconstituted form within glass vials at 65° C., 24 hours", "result": 39.3, "unit": "%"}
    ]}
  ]
}
